Earlier results in US20060241020A1, “Protein tyrosine phosphatase inhibitors” (Applied Research Systems ARS Holdings N.V., priority 2002, published 2006).
Square brackets hold non-standard residues; d marks the D form. Ends that are not written are not given here. pY = N[C@@H](Cc1ccc(OP(=O)(O)O)cc1)C(=O)O

Molecular target: SHP1 (Homo sapiens, UniProt P29350)
Details: classification of Wang Peng et al. (68); cited from earlier work

SHP1, sequence (P29350 whole entry): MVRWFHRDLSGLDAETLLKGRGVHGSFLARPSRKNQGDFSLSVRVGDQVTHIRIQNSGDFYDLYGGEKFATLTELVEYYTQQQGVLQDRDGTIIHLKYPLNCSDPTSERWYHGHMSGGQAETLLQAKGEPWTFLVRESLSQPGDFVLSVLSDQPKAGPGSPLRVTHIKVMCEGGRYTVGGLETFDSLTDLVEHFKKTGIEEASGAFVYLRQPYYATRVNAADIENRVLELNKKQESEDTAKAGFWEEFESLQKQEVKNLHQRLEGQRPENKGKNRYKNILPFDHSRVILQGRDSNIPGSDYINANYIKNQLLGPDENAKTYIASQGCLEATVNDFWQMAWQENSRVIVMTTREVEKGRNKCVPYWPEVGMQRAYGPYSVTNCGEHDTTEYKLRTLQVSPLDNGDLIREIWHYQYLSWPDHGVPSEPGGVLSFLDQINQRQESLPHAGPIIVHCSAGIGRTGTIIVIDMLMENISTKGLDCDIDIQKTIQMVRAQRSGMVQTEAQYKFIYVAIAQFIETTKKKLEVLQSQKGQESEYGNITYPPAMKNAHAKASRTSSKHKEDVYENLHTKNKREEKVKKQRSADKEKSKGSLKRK

Q: Which “Substrate class for SHP-1” value does the source give for “RNNEFpYA-NH2 (RNNEF[pY]A-NH2; N-terminus assumed; SMILES C[C@H](NC(=O)[C@H](Cc1ccc(OP(=O)(O)O)cc1)NC(=O)[C@H](Cc1ccccc1)NC(=O)[C@H](CCC(=O)O)NC(=O)[C@H](CC(N)=O)NC(=O)[C@H](CC(N)=O)NC(=O)[C@@H](N)CCCNC(=N)N)C(N)=O) [SHP-1 peptide of Wang Peng et al., excluded from the invention]” here?
A: class 3
